# ± gives the standard deviation of the averaged measurements.
# Test system: Saccharomyces cerevisiae
# Experiment: protein stability index of tFT-peptide fusion (C-terminal peptide) (PSI (0-1 scale)); higher = more stable (slower turnover)
# Conditions: genetic background: wild type; temperature: 30 C
# 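Also: PSI is a weighted mean of sequencing reads over stability bins, variants kept only with over 10 reads, mCherry proximal and sfGFP distal, peptide attached via GGGS linker.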
row,Sequence,protein stability index
1,GKRVNLNITSHS,0.683 ± 0.024
2,KQKKTQKIYTMR,0.728 ± 0.059
3,WKQEKYTFKKRT,0.707 ± 0.032
4,SRSAQAGFKVFN,0.712 ± 0.2
5,RKNTSRESGLTR,0.632 ± 0.026
6,RASGSFPSLVFS,0.734 ± 0.12
7,NSDEYKVYGEKL,0.661 ± 0.015
8,GGSDQLGDSVAG,0.647 ± 0.057
9,RRLRRALPPQLA,0.577 ± 0.037
10,SIPLIMPLSDYV,0.675 ± 0.015
11,PPPPRPSSPLIL,0.741 ± 0.021
12,SLTLPAPPLSPC,0.712 ± 0.11
13,NALFGWMRGCLS,0.724 ± 0.034
14,VSARWSTSLCLS,0.533 ± 0.015
15,PCPSVLPISLPH,0.713 ± 0.06
16,FDRAVRPSCLLL,0.6892 ± 0.0062
17,LRGGSRWVSGGY,0.636 ± 0.026
18,LERKRKYSPHDQ,0.677 ± 0.025
19,SPPPPSCRHSPL,0.741 ± 0.011
20,VSLCYGGGFWGG,0.722 ± 0.014
21,DSVQALDGRAGI,0.683 ± 0.046
22,GPLRPTPAPNRT,0.644 ± 0.0079
23,WPPPPPPPASPH,0.719 ± 0.071
24,PPHPPRPPSPHP,0.707 ± 0.051
25,PSPLLPPPLPPS,0.678 ± 0.046
26,SCLYPTQILART,0.631 ± 0.017

row,Sequence,protein stability index
1,RCSDILGKGKHV,0.661 ± 0.0084
2,PPFLSAFPPHLP,0.724 ± 0.015
3,GKRGGTGAGEKR,0.66 ± 0.071
4,YLLLPPPPPPSL,0.722 ± 0.0098
5,VGSLGVGTFRRD,0.692 ± 0.011
6,TRRHKPNSGTRP,0.69465 ± 7.1e-06
7,ISWLLSFLGVVF,0.601 ± 0.046
8,RWVGVGPEGGVA,0.678 ± 0.068
9,FLGCFIPLPCTP,0.645 ± 0.012
10,PPPPPPSPPPSP,0.633 ± 0.044
11,PWTRMHRETRYL,0.683 ± 0.02
12,GTCWGGAMGVVG,0.728 ± 0.042
13,LPPLPLPPATTP,0.715 ± 0.04
14,SPRSSPLPSPPP,0.766 ± 0.026
15,VFKLRLPAVPHT,0.734 ± 0.09
16,PRPGSRCPIKGR,0.692 ± 0.024
17,YKGYEIIGSVQG,0.72 ± 0.023
18,HVTGFVQRYLCH,0.711 ± 0.092
19,SKGARQRQPPDG,0.5983 ± 0.0041
20,PTHSRQPPYLSL,0.684 ± 0.027
21,IALPPPLLPPSL,0.706 ± 0.051
22,EGGVERIHKPSS,0.654 ± 0.061
23,VSSPLLFCSIFL,0.675 ± 0.026
24,YFGGRGPRGRER,0.714 ± 0.0095
25,ILEGGGVLAWFG,0.7253 ± 0.0017
26,PAAPGLDLRHDP,0.623 ± 0.037

row,Sequence,protein stability index
1,SPPLLPGVLSES,0.645 ± 0.055
2,YLEQALLDVQTD,0.756 ± 0.021
3,TSFNQCRVFCRT,0.614 ± 0.049
4,RVSIPALKEIAS,0.737 ± 0.036
5,FSSCFLVSPSLF,0.648 ± 0.016
6,PSAPFLPSPPPV,0.661 ± 0.021
7,GSEAGEPRAGRA,0.675 ± 0.015
8,SFACVYVPPALF,0.712 ± 0.025
9,DWSHLLTSHAII,0.703 ± 0.041
10,LVPPPPPPSPPP,0.6457 ± 0.004
11,KMKRSNADAVEP,0.678 ± 0.03
12,RVAWFSSNCFAV,0.571 ± 0.061
13,PYAFPPPPPPPP,0.64 ± 0.032
14,PSGSFPPCLGSP,0.653 ± 0.018
15,SQPNRESQNTFN,0.711 ± 0.052
16,PPRPPLPRPLPP,0.657 ± 0.041
17,RRRGQLNTAEWK,0.717 ± 0.065
18,VFFLHGLVIYED,0.563 ± 0.069
19,GCLFLCPLSPLI,0.685 ± 0.026
20,PSSYFFPPHFLL,0.665 ± 0.1
21,PPPVPPPSPPPT,0.641 ± 0.07
22,DSQAEPGLSARL,0.796 ± 0.059
23,IEDEHLEDAPYG,0.678 ± 0.048
24,PLGPRFLPLVLP,0.682 ± 0.021
25,LPRPSALLLRSL,0.5 ± 0.12
26,GFEAFGPFIPAF,0.681 ± 0.019

row,Sequence,protein stability index
1,APGLPSFRSLFA,0.676 ± 0.016
2,SPRPDSVLLRSP,0.723 ± 0.025
3,TPRSPFPPLPPP,0.698 ± 0.049
4,GGIVVRGVGVRC,0.661 ± 0.04
5,PLHPPPPPPPPT,0.69 ± 0.034
6,DIHVNLHKSRKM,0.626 ± 0.027
7,IQLEFEDMERGK,0.704 ± 0.11
8,ALGVRVSVLGVL,0.642 ± 0.0075
9,KFASNNMFTRYV,0.745 ± 0.012
10,KKNKRMKVREKK,0.609 ± 0.034
11,LSASALEFSSPP,0.699 ± 0.0069
12,GNWRGLRLMSAP,0.7603 ± 0.0062
13,IDLISENDNAVG,0.709 ± 0.021
14,LRCRLCRFFPFL,0.714 ± 0.044
15,GGGGGGGGSLRV,0.663 ± 0.038
16,VGLVVVRTMGPC,0.6463 ± 0.00079
17,GGVRGWAAFSAE,0.682 ± 0.028
18,VSPLFQDFSIIN,0.717 ± 0.06
19,PSFFFFAAPLPL,0.623 ± 0.028
20,PPLFPPPTLPEL,0.738 ± 0.02
21,SFFGYPCFLLSI,0.54 ± 0.026
22,PPSPSPPPPPPT,0.648 ± 0.04
23,PLPFPPPPPSPY,0.655 ± 0.086
24,LVSPSSPLLPPP,0.685 ± 0.082
25,PPSPPDSPPPAS,0.665 ± 0.014
26,IRVATIQSTMYI,0.643 ± 0.016

row,Sequence,protein stability index
1,YSPVPPPTRPPL,0.7069 ± 0.0017
2,PPPHSPLPAPPR,0.76 ± 0.086
3,VIILRWCRVDGF,0.565 ± 0.031
4,HRTSSCESSPLA,0.737 ± 0.076
5,FWSCSTGHERVV,0.711 ± 0.03
6,VREFRRAVFVGS,0.544 ± 0.02
7,TSAASPVRYGGS,0.65 ± 0.014
8,LSSLHFRFLSAG,0.62 ± 0.062
9,SGCPGPNVPRVP,0.705 ± 0.014
10,DRHVPPASYLAD,0.6343 ± 0.0057
11,SWFTHTQSVRCS,0.515 ± 0.014
12,TPSLLPSPPFPL,0.733 ± 0.02
13,PLCLLLLNPPTL,0.682 ± 0.012
14,GVRSGAGGQVVG,0.701 ± 0.038
15,PPFLPLPPPPLP,0.731 ± 0.015
16,CFHIFRKSNMNN,0.726 ± 0.11
17,AACGELLKYSLS,0.576 ± 0.011
18,KKRRTKKENNNI,0.687 ± 0.0089
19,PPPGPSPPPSPH,0.683 ± 0.074
20,SKRSYEEGNIVY,0.672 ± 0.028
21,LPPLGAPQPPPP,0.731 ± 0.021
22,AGGGEASRGQAK,0.596 ± 0.0062
23,ITTLRSLWVVGL,0.609 ± 0.085
24,GQHAAVNASVVR,0.665 ± 0.013
25,SLKIPSPLSPVL,0.699 ± 0.028
26,CGVGGVRCGLLG,0.667 ± 0.029

row,Sequence,protein stability index
1,SPLASVLPHAAL,0.707 ± 0.049
2,TPLLAALRPTTS,0.764 ± 0.07
3,VPPPLASPPVTP,0.698 ± 0.055
4,KKKKKKKKRARY,0.657 ± 0.0063
5,LVCLWQGSSVLI,0.671 ± 0.023
6,SRWHVCGWYKRR,0.682 ± 0.016
7,KDNMQFLHLYAS,0.707 ± 0.075
8,PVPPQHPPLKSI,0.705 ± 0.059
9,VRSLFSFRLRGS,0.633 ± 0.056
10,LPPPSPPPPLSP,0.621 ± 0.01
11,GCGHVFEVNYEC,0.6206 ± 0.0053
12,PPAHPRPPPPFL,0.762 ± 0.037
13,DRFPGLILVSFP,0.73 ± 0.05
14,AIKGIYPRCYFI,0.697 ± 0.0073
15,PPPHPPPPLPPP,0.617 ± 0.01
16,GGGWGWAGENTR,0.698 ± 0.038
17,PLSPPLPPPLSL,0.681 ± 0.031
18,DSESSLPSLPHT,0.682 ± 0.015
19,AYNFMTSVVPGK,0.744 ± 0.056
20,LFPPPPSPLGHS,0.75227 ± 0.00052
21,ASPLTIHSPNLL,0.725 ± 0.064
22,SARDVPPPPLTP,0.733 ± 0.018
23,RGWGGGRVAREC,0.657 ± 0.026
24,GAFSVPKAKNAL,0.699 ± 0.1
25,ASSDLQDSPIGD,0.665 ± 0.019
26,GDDGGSGGCVER,0.6606 ± 0.0051

row,Sequence,protein stability index
1,VGVDCGVLWCLF,0.637 ± 0.015
2,RYFCPVLGPVNF,0.652 ± 0.046
3,SRSFVPRNSPRI,0.6609 ± 0.0051
4,PYHTITPKPLQR,0.677 ± 0.049
5,RTLEIYRGLTNE,0.648 ± 0.094
6,SFRFFVSGFVVL,0.531 ± 0.009
7,MQGCKAYSVGRQ,0.701 ± 0.061
8,PKVRQLLLTRVL,0.547 ± 0.022
9,APSQPPTPPPIS,0.665 ± 0.03
10,ELLKQRTRKRQK,0.693 ± 0.021
11,GDGQETEKNNAE,0.604 ± 0.046
12,RCGVGGAVSFWW,0.72 ± 0.05
13,LFLSLSGSYRCI,0.532 ± 0.079
14,KKKMINEKKKKD,0.701 ± 0.025
15,LPLVLSPSPPHP,0.711 ± 0.061
16,PAPTRPSPPPLP,0.641 ± 0.013
17,PPSLPPPIHLPL,0.646 ± 0.011
18,GRKWRTSCQCVS,0.586 ± 0.026
19,FGFGYAVSFLVG,0.6 ± 0.081
20,PHVSGYTVLIWF,0.5588 ± 0.0054
21,PPPHPLALPPPP,0.74 ± 0.03
22,GIVGFSHGIISL,0.703 ± 0.032
23,VAGGWVPGRGEG,0.69 ± 0.025
24,ICYGLHVPARRR,0.63303 ± 0.00013
25,RFEISNLVFIPR,0.686 ± 0.033
26,DNEMLQICRSRW,0.774 ± 0.029

row,Sequence,protein stability index
1,PPPPPAPLPSSL,0.671 ± 0.02
2,KLNMLLYNNQEK,0.631 ± 0.039
3,LSPCCFLTSSSF,0.71 ± 0.033
4,RPFGRPTSMRHA,0.616 ± 0.059
5,LTPAPSSCLRSP,0.6857 ± 0.005
6,GPAGGGRLECGV,0.7157 ± 0.0069
7,HGLVLLCINDIV,0.6312 ± 0.001
8,SRSRPSRTLPLD,0.695 ± 0.022
9,LVDSSLTESLDV,0.645 ± 0.034
10,PPFPPPPRPPSS,0.645 ± 0.036
11,SNDTRKNKKRRT,0.797 ± 0.084
12,WVLSYVPEIGRL,0.741 ± 0.035
13,CRPAASCLPPER,0.6684 ± 0.0066
14,PPASPPLPPPRP,0.689 ± 0.042
15,EPATEGDSREHW,0.708 ± 0.024
16,MYRLSFAAGRGS,0.688 ± 0.016
17,RVLRAELCLHEI,0.687 ± 0.065
18,RGHLPPIGLTRH,0.675 ± 0.013
19,CQPTTTCTGGNV,0.693 ± 0.035
20,VWFFSHFCGVRF,0.686 ± 0.012
